Data reported in patent US20120183475A1.

Key:
[1] = molecular target: Human P-selectin (CD62P) on human platelets in whole blood (human) (UniProt P16109); experiment: flow cytometry, human whole blood, non-activated platelets
[2] = molecular target: Human P-selectin (CD62P) on human platelets in whole blood (human) (UniProt P16109); experiment: flow cytometry, human whole blood, platelets activated with 200 uM TRAP
[3] = molecular target: Human P-selectin (CD62P) on human platelets in whole blood (human) (UniProt P16109); experiment: flow cytometry, human whole blood, platelets activated with 2.5 uM ADP

Sequence of UniProt P16109 (P16109 42-830): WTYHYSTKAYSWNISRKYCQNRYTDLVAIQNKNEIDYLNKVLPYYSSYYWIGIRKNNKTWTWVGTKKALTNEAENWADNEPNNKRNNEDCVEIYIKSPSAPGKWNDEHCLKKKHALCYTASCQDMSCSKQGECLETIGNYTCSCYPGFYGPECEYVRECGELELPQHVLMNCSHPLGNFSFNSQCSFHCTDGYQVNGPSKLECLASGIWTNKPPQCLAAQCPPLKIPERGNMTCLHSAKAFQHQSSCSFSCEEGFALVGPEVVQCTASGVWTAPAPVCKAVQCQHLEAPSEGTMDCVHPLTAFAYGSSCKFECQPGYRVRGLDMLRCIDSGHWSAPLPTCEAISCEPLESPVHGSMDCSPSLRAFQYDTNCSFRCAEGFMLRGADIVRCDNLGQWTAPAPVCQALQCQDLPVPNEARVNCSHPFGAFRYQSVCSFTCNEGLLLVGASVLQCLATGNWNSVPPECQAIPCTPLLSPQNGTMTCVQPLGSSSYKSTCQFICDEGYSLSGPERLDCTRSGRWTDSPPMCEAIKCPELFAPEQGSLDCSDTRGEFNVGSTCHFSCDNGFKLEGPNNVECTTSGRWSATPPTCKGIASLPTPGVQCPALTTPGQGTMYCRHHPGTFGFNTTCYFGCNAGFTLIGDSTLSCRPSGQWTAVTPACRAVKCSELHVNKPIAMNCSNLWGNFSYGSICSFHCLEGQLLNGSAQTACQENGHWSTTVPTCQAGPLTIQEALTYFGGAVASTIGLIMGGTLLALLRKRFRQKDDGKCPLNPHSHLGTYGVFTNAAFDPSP

- positivity (% of platelets) [1]: 0.4%
- positivity (% of platelets) [2]: 97.8%
- positivity (% of platelets) [3]: 73.4%
Substance: PC5-labeled antihuman P-selectin (CD62P, AK-4 clone) (antibody)
